Test results published in article PMC10515612, “Analytical Ultracentrifugation-Calibrated Anion-Exchange Chromatography for Sensitive and Intact Determination of Osteopontin in Infant Formula and Dairy Products” (Journal of Agricultural and Food Chemistry, 2023).
Where “and” joins values, the source holds several entries; their conditions need not be identical. Equal entries are not always repeated.

Molecular target: the molecule itself
Assay: AUC; sedimentation velocity, interference optics, OPN 1 mg/mL, 20 °C, 50,000 rpm; buffer changed from 20 mM THAM (10 mM NaCl, pH 8.00) to 20 mM PBS

B1: Osteopontin (bovine milk osteopontin, in-house reference standard) (natural protein)
chain: not shown
modifications: phosphorylations (~1.7 kDa) and O-linked glycosylations (2.9 kDa) on the full-length form; sites not given
notes: Osteopontin, bovine, from milk; By MALDI-TOF the material also holds an N-terminal fragment (150 amino acids, ~19.8 kDa); The sample is a mixture of full-length OPN and an N-terminal fragment of about 150 residues; also called OPN; bovine OPN; source: high-purity OPN protein ingredient extracted and provided by Arla Foods Ingredients (Denmark)
  stoichiometry N: 4 and 8
